B1: Mothers against decapentaplegic homolog 4 (Homo sapiens), Q13485 (parent)
chain: MDNMSITNTPTSNDACLSIVHSLMCHRQGGESETFAKRAIESLVKKLKEKKDELDSLITAITTNGAHPSKCVTIQRTLDGRLQVAGRKGFPHVIYARLWRWPDLHKNELKHVKYCQYAFDLKCDSVCVNPYHYERVVSPGIDLSGLTLQSNAPSSMMVKDEYVHDFEGQPSLSTEGHSIQTIQHPPSNRASTETYSTPALLAPSESNATSTANFPNIPVASTSQPASILGGSHSEGLLQIASGPQPGQQQNGFTGQPATYHHNSTTTWTGSRTAPYTPNLPHHQNGHLQHHPPMPPHPGHYWPVHNELAFQPPISNHPAPEYWCSIAYFEMDVQVGETFKVPSSCPIVTVDGYVDPSGGDRFCLGQLSNVHRTEAIERARLHIGKGVQLECKGEGDVWVRCLSDHAVFVQSYYLDREAGRAPGDAVHKIYPSAYIKVFDLRQCHRQMQQQAATAQAAAAAQAAAVAGNIPGPGSVGGIAPAISLSAAAGIGVDDLRRLCILRMSFVKGWGPDYPRQSIKETPCWIEIHLHRALQLLDEVLHTMPIADPQPLD
partner: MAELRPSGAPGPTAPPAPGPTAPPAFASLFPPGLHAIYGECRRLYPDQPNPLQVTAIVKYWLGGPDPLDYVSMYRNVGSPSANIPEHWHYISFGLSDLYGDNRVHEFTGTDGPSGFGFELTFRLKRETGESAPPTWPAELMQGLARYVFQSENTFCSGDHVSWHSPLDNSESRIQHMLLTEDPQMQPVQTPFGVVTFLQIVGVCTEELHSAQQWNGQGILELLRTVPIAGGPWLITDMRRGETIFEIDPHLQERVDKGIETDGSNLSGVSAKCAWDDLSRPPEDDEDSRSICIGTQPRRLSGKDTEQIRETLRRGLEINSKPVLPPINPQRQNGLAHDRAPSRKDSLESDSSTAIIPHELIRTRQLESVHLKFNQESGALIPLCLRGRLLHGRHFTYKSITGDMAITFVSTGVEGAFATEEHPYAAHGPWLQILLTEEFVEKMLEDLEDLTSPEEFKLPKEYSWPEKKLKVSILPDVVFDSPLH
B2: Mothers against decapentaplegic homolog 4 (Homo sapiens), Q13485 (parent)
chain: B1 chain
partner: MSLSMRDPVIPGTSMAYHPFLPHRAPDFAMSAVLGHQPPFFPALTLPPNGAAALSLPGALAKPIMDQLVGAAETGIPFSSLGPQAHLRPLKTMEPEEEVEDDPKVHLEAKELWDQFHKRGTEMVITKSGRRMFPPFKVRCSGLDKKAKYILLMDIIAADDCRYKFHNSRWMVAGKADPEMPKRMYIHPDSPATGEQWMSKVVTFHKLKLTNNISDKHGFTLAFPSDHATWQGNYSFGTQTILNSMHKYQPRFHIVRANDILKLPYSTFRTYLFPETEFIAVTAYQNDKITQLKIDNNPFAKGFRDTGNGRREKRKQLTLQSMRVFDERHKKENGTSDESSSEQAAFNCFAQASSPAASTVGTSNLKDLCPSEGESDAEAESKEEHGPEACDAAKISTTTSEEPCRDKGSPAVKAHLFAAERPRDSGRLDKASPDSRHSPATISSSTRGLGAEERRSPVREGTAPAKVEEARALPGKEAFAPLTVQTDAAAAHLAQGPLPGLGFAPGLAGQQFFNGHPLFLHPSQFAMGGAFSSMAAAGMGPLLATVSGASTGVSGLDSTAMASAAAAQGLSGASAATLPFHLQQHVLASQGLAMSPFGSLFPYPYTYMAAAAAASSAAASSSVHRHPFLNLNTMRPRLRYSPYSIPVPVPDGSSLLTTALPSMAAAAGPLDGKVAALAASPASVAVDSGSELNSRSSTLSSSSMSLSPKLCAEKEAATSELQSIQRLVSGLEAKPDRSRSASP
B3: Mothers against decapentaplegic homolog 4 (Homo sapiens), Q13485 (parent)
chain: B1 chain
partner: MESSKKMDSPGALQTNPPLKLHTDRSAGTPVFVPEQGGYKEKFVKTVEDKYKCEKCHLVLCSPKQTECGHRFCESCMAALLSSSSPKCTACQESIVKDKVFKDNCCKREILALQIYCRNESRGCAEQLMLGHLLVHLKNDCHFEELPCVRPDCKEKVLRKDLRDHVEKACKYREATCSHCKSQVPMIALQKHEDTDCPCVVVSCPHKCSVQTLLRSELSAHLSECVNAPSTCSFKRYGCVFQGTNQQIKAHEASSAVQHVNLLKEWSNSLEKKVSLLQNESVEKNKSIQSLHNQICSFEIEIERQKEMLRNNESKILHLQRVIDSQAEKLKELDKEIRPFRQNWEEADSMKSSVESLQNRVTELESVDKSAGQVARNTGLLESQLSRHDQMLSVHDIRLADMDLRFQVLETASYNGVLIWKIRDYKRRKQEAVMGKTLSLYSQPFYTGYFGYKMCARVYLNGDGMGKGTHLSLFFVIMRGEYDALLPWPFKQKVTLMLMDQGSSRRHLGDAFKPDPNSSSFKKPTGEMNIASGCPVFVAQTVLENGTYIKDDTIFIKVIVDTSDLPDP

Variants of: B1
Conditions: with sufu_human SUFU
In the case of D351H, the “effect of a mutation on the interaction” value is reported as “with no effect”.

Variants of: B1
Conditions: with sufu_human SUFU
Remark: another data set of the same source
For G386D, the “effect of a mutation on the interaction” value was “with no effect”.

Variants of: B1
Conditions: with sufu_human SUFU
Remark: another data set of the same source
For R361C, the “effect of a mutation on the interaction” value was “with no effect”.

Variants of: B1
Conditions: with sufu_human SUFU
Remark: another data set of the same source
In the case of R361H, the “effect of a mutation on the interaction” value is reported as “with no effect”.

Variants of: B2
Conditions: with tbx3_human TBX3, O15119
In the case of D351H, the “effect of a mutation on the interaction” value is reported as “with no effect”.

Variants of: B2
Conditions: with tbx3_human TBX3, O15119
Remark: another data set of the same source
G386D was tested, and the “effect of a mutation on the interaction” value was “with no effect”.

Variants of: B2
Conditions: with tbx3_human TBX3, O15119
Remark: another data set of the same source
In the case of R361C, the “effect of a mutation on the interaction” value is reported as “with no effect”.

Variants of: B2
Conditions: with tbx3_human TBX3, O15119
Remark: another data set of the same source
With R361H the “effect of a mutation on the interaction” value was “with no effect”.

Variants of: B3
Conditions: with traf3_human TRAF3, Q13114
With D351H the “effect of a mutation on the interaction” value was “with no effect”.

Variants of: B3
Conditions: with traf3_human TRAF3, Q13114
Remark: another data set of the same source
In the case of G386D, the “effect of a mutation on the interaction” value is reported as “with no effect”.

Variants of: B3
Conditions: with traf3_human TRAF3, Q13114
Remark: another data set of the same source
For R361C, the “effect of a mutation on the interaction” value was “with no effect”.

Reference: IntAct's records for PubMed 35512704
